In article PMC5392571, “A model for the conformational activation of the structurally quiescent metalloprotease ADAMTS13 by von willebrand factor” (The Journal of Biological Chemistry, 2017):

T1: WT MDTCS (ADAMTS13 residues 1–685) (human, UniProt Q76LX8 30-685)
T1 construct: signal peptide in the construct; ADAMTS13, human, residues 1-685 (metalloprotease, disintegrin-like, TSP1, cysteine-rich and spacer domains); In pCEP4; also called truncated ADAMTS13 variant MDTCS; source: HEK293S cells, purified; not shown: His6, C-terminal, kept
T1 sequence (looked up): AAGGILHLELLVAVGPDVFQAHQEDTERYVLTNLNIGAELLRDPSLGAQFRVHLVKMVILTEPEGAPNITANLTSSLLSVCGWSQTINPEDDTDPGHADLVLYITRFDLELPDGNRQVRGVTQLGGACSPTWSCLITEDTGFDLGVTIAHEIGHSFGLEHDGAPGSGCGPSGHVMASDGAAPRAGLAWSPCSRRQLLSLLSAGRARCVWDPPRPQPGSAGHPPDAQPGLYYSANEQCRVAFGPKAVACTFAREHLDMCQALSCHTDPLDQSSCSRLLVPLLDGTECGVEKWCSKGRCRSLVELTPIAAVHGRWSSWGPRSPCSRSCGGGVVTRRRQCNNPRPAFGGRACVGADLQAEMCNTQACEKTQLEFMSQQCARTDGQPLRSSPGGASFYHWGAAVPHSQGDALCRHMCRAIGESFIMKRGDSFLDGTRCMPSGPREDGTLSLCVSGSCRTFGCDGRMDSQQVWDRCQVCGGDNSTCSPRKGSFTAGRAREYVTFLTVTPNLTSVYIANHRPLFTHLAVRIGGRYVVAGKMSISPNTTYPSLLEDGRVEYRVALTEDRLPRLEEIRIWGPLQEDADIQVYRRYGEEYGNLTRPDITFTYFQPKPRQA


Columns and labels:
[1] = molecular target: T1, WT MDTCS (ADAMTS13 residues 1–685); assay: SPR; BIAcore T100, CM5 chip; 10 mM HEPES, 150 mM NaCl, pH 7.4, 0.0034 mM EDTA, 0.005% Tween 20; the text says MDTCS variants were immobilised, the legend of Fig. 1 says the CUB fragments were; global analysis; conditions: both partners purified
[2] = molecular target: T2, dimeric VWF D4-CK domain fragment (VWF residues 1874–2813) (UniProt P04275 1874-2813); assay: SPR; BIAcore T100, CM5 chip; ADAMTS13, its truncation variants or CUB fragments immobilised, VWF D4-CK as analyte; 10 mM HEPES, 150 mM NaCl, pH 7.4, 0.0034 mM EDTA, 0.005% Tween 20; global analysis; conditions: both partners purified
T2 construct: von Willebrand factor, residues 1874-2813 (D4 to CK domains); source: HEK293S, transiently expressed, purified by FPLC

| Kd [1] | Kd [2] | Binder |
| --- | --- | --- |
| 86.9 nM | 84.3 nM | CUB2 domain fragment (ADAMTS13 residues 1299–1427) (domain or fragment, human, UniProt Q76LX8 1299-1427, looked up, ADAMTS13, human, residues 1299-1427 (CUB2 domain); Generated by inverse PCR from the full-length ADAMTS13 construct (C-terminal Myc/His6); detected by anti-His6 in the co-IP; also called isolated CUB2 fragment; source: HEK293S cells, purified) CDMQLFGPWGEIVSPSLSPATSNAGGCRLFINVAPHARIAIHALATNMGAGTEGANASYILIRDTHSLRTTAFHGQQVLYWESESSQAEMEFSEGFLKAQASLRGQYWTLQSWVPEMQDPQSWKGKEGT |
| 55.6 nM | 51.8 nM | CUB1-2 domain fragment (ADAMTS13 residues 1192–1427) (domain or fragment, human, UniProt Q76LX8 1192-1427, looked up, ADAMTS13, human, residues 1192-1427 (CUB1 and CUB2 domains); Generated by inverse PCR from the full-length ADAMTS13 construct (C-terminal Myc/His6); source: HEK293S cells, purified) CGRQHLEPTGTIDMRGPGQADCAVAIGRPLGEVVTLRVLESSLNCSAGDMLLLWGRLTWRKMCRKLLDMTFSSKTNTLVVRQRCGRPGGGVLLRYGSQLAPETFYRECDMQLFGPWGEIVSPSLSPATSNAGGCRLFINVAPHARIAIHALATNMGAGTEGANASYILIRDTHSLRTTAFHGQQVLYWESESSQAEMEFSEGFLKAQASLRGQYWTLQSWVPEMQDPQSWKGKEGT |
| 135 nM | 53.7 nM | CUB1 domain fragment (ADAMTS13 residues 1192–1298) (domain or fragment, human, UniProt Q76LX8 1192-1298, looked up, ADAMTS13, human, residues 1192-1298 (CUB1 domain); Generated by inverse PCR from the full-length ADAMTS13 construct (C-terminal Myc/His6); detected by anti-His6 in the co-IP; also called isolated CUB1 fragment; source: HEK293S cells, purified) CGRQHLEPTGTIDMRGPGQADCAVAIGRPLGEVVTLRVLESSLNCSAGDMLLLWGRLTWRKMCRKLLDMTFSSKTNTLVVRQRCGRPGGGVLLRYGSQLAPETFYRE |
